This note sets out measurements from patent US20250205324A1, “ANTIGENIC PEPTIDES FOR PREVENTION AND TREATMENT OF CANCER” (ENTEROME S.A., priority 2022, published 2025).

The target of one data set is T1, HLA-A*0201 (Homo sapiens, UniProt P04439, D140Y/D185E/D98H/E176V/E277Q/G131W/G231S/I119V/I121R/I166T/I218V/L300P/L318F/N151K/N90K/P208A/P217A/Q86G/Q94H/R138H/R169H/T345S).
T1 construct: human tumoral cell T2 which expresses the HLA-A*0201 molecule; endogenous in cells; host or cells: T2 cells (human, TAP1/2 negative)
The experiment in a line: Affinity of the peptide to T2 cell line (HLA-A*0201 binding, FACS with anti-HLA-A2 antibody). As to conditions: T2 cells. As to the method:
T2 cells (5·10^4 cells per well) are incubated with decreasing concentrations of peptides from 100 μM to 0.1 μM (4 points: 100 μM, 10 μM, 1 μM, 0.1 μM) in serum-free medium (TexMacs) supplemented with 100 ng/μl of 2 Microglobulin at 37° C. for 16 hours.
The analysis is achieved by FACS (Macsquant analyzer 10 or a Macsquant analyzer 16-Miltenyi).

For data set [1], the system named is T2 cell lines loaded with bacterial peptide or human counterpart peptide. Description: Cytotoxic assay of peptide-specific CD8+ T cells against peptide-loaded T2 cells. In kind it is cell-based. From the text: CD8+ T cells expanded per above were used to perform cytotoxic assays in presence of different ratios of target and effector cells to assess their cytotoxic capacity, using flow cytometry readout. Target cells were T2 cell lines loaded with bacterial peptide or human counterpart peptide. As a negative control T2 cells unloaded and T2 cells loaded with irrelevant peptide were employed.

The target of data set [2] is T2, HLA-A*0201 molecule expressed on human T2 cells (human).
T2 construct: surface HLA-A2 detected with anti-HLA-A2-PE (clone REA517); also called HLA-A2
The experiment in a line: T2 cell HLA-A*0201 binding assay, anti-HLA-A2-PE flow cytometry. The method, then:
T2 cells (5·10⁴ cells per well) are incubated with decreasing concentrations of peptides from 100 μM to 0.1 μM (4 points: 100 μM, 10 μM, 1 μM, 0.1 μM) in serum-free medium (TexMacs) supplemented with 100 ng/μl of 2 Microglobulin at 37° C. for 16 hours. Cells are then washed two times and marked with the anti-HLA-A2 antibody coupled to PE (clone REA517, Miltenyi).
For each peptide concentration, the geometric mean of the labelling associated with the peptide of interest is subtracted from background noise and reported as a percentage of the geometric mean of the HLA-A*0202 labelling obtained for the reference peptide HIV pol 589-597 at a concentration of 100 μM.
(In general: In flow cytometry, cells or beads pass a laser one at a time.)

[3] abbreviates: T cell clones expanded in vitro, flow cytometry readout (FIG. 18).

Where two headings read alike, the source gives them in different places. Where no end group is shown, it is not given here.

For “ALYDVRTIL (listed as Homo sapiens) [UBE2C-H1]”, the “Concentration of peptide that induces 20% of HLA-A2 expression” value with HLA-A*0201 stood at 14.98 µM.

“AINPELLQL (listed as Homo sapiens) [KIF2C-H1]”: the “Concentration of peptide that induces 20% of HLA-A2 expression” value with HLA-A*0201 stood at 22.55 µM.

As to “KILDTVHSC (listed as Homo sapiens) [ANKRD30A-H2]”, the “Concentration of peptide that induces 20% of HLA-A2 expression” value with HLA-A*0201 came out at 25.32 µM.

For FLYDVRTYL [UBE2C-B1], in data set [1] (setting [3]), the “cytotoxic capacity of peptide-specific human T cell clones against T2 cells loaded with the bacteria peptide” value (from here on “cytotoxic capacity … with the bacteria peptide”) is recorded as “have the capacity to kill T2 cells” and the “cytotoxic capacity of peptide-specific human T cell clones against T2 cells loaded with the human peptide” value (shortened to “cytotoxic capacity … with the human peptide”) is “able to kill T2 cells loaded with the human”. Besides, the “cytotoxic capacity of peptide-specific T cells against T2 cells loaded with bacterial or human peptides” value in data set [1] (legend of FIG. 18) is “have the ability to kill T2 cells loaded with bacterial or human peptides”.

For “SLDQKLFQL (listed as Homo sapiens) [ANKRD30A-H3]”, the “Concentration of peptide that induces 20% of HLA-A2 expression” value with HLA-A*0201 worked out at 0.32 µM.

With ALNPELLAL [KIF2C-B1, ALNPELLAL], in data set [1], the “cytotoxic capacity of peptide-specific T cells against T2 cells loaded with bacterial or human peptides” value is on record as “have the ability to kill T2 cells loaded with bacterial or human peptides”, the “cytotoxic capacity … with the bacteria peptide” value is given as “have the capacity to kill T2 cells” and the “cytotoxic capacity … with the human peptide” value is “able to kill T2 cells loaded with the human”.

As to “ALYDVRTILL (listed as Homo sapiens) [UBEC2-H11]”, the “Concentration of peptide that induces 20% of HLA-A2 expression” value with HLA-A*0201 was determined as 14.87 µM.

Regarding AVIGIVAAV [OR51E2-B1], the “Concentration of peptide that induces 20% of HLA-A2 expression” value with HLA-A*0201 was found to be 0.7 µM.

As for VMNPELLLL [KIF2C-B12], in the data set with HLA-A*0201, the “Concentration of peptide that induces 20% of HLA-A2 expression” value turned out to be 0.258 µM.

“YLILEYAPL (listed as Homo sapiens) [AURKA-H1]”: the “Concentration of peptide that induces 20% of HLA-A2 expression” value with HLA-A*0201 turned out to be 12.2 µM.

Consider “ILLSIQSLL (listed as Homo sapiens) [UBE2C-H2]”, for which, in the data set with HLA-A*0201, the “Concentration of peptide that induces 20% of HLA-A2 expression” value stood at 3.27 µM.

On to “KVWSDVTPL (listed as Homo sapiens) [MMP11-H1]”, for which the “Concentration of peptide that induces 20% of HLA-A2 expression” value with HLA-A*0201 was found to be 0.65 µM.

As for TLDQKLFMV [ANKRD30A-B3], the “Concentration of peptide that induces 20% of HLA-A2 expression” value with HLA-A*0201 amounted to 0.14 µM.

On to SLLSIQSYV [UBE2C-B2], for which the “Concentration of peptide that induces 20% of HLA-A2 expression” value with HLA-A*0201 is 0.22 µM.

On to “RLQQELMTL (listed as Homo sapiens) [UBE2C-H3]”, for which the “Concentration of peptide that induces 20% of HLA-A2 expression” value in the data set with HLA-A*0201 stood at 1.06 µM.

Turning to SLPDRILTV [CDC20-B1], in data set [1], the “cytotoxic capacity of peptide-specific T cells against T2 cells loaded with bacterial or human peptides” value is on record as “have the ability to kill T2 cells loaded with bacterial or human peptides”, the “cytotoxic capacity … with the bacteria peptide” value is reported as “have the capacity to kill T2 cells” and the “cytotoxic capacity … with the human peptide” value was “able to kill T2 cells loaded with the human”.

With “LVIGIILAV (listed as Homo sapiens) [CDH17-H1]”, the “Concentration of peptide that induces 20% of HLA-A2 expression” value with HLA-A*0201 amounted to 14.06 µM.

On to LILDTVHSL [ANKRD30A-B2], for which the “Concentration of peptide that induces 20% of HLA-A2 expression” value in the data set with HLA-A*0201 amounted to 1.13 µM.

Turning to QMNPELLTL [KIF2C-B11], in the data set with HLA-A*0201, the “Concentration of peptide that induces 20% of HLA-A2 expression” value turned out to be 0.909 µM.

For YLYDVRTAL [UBE2C-B11, b339 prints …], the “Concentration of peptide that induces 20% of HLA-A2 expression” value with HLA-A*0201 stood at 0.87 µM.

For the molecule “AQIGIVAVV (listed as Homo sapiens) [OR51E2-H1]”, the “Concentration of peptide that induces 20% of HLA-A2 expression” value with HLA-A*0201 is 5.68 µM.

For VLNPELLML [KIF2C-B13], the “Concentration of peptide that induces 20% of HLA-A2 expression” value in the data set with HLA-A*0201 came out at 0.189 µM.

For IVWSDVTYV [MMP11-B1], the “Concentration of peptide that induces 20% of HLA-A2 expression” value with HLA-A*0201 is 0.08 µM.

With KIIGIILAV (also called ENT176_B1; ENT_176-B1) [CDH17-B1], the “concentration of peptide that induces 20% of HLA-A2 expression” value in data set [2] turned out to be 0.2 µM.

As to YLILEYATV (also called ENT199_B1) [AURKA-B1], in data set [2], the “concentration of peptide that induces 20% of HLA-A2 expression” value is 1.16 µM.

On to SLDQKLFQL [ANKRD30A-H3], for which, in data set [2], the “concentration of peptide that induces 20% of HLA-A2 expression” value was determined as 0.32 µM; the “in vitro binding affinity (relative affinity, normalized against HIV-pol)” value (“relative affinity, normalized” for short) was 0.4 ratio to HIV pol reference peptide; the “mean relative fluorescence intensity at 0.1 µM peptide” value was 5.9 % of HIV pol reference peptide; the “mean relative fluorescence intensity at 1 µM peptide” value is 41.9 % of HIV pol reference peptide. In addition, in data set [2], the “mean relative fluorescence intensity at 10 µM peptide” value was 99.1 % of HIV pol reference peptide and the “mean relative fluorescence intensity at 100 µM peptide” value was 97.1 % of HIV pol reference peptide.

As for YLSGANLFV (also called CEACAM-B1; ENT188_B1) [CEACAM5-B1], in data set [2], the “concentration of peptide that induces 20% of HLA-A2 expression” value worked out at 0.5 µM; the “relative affinity, normalized” value was 0.5 ratio to HIV pol reference peptide; the “mean relative fluorescence intensity at 0.1 µM peptide” value was 7.7 % of HIV pol reference peptide; the “mean relative fluorescence intensity at 1 µM peptide” value was 30.8 % of HIV pol reference peptide. Further, in data set [2], the “mean relative fluorescence intensity at 10 µM peptide” value is 69.2 % of HIV pol reference peptide and the “mean relative fluorescence intensity at 100 µM peptide” value was 76 % of HIV pol reference peptide.

Turning to LVIGIILAV (also called ENT176-H) [CDH17-H1], in data set [2], the “concentration of peptide that induces 20% of HLA-A2 expression” value came out at 14.1 µM; the “relative affinity, normalized” value is 14.9 ratio to HIV pol reference peptide; the “mean relative fluorescence intensity at 0.1 µM peptide” value was 0.5 % of HIV pol reference peptide; the “mean relative fluorescence intensity at 1 µM peptide” value was 3.7 % of HIV pol reference peptide. In data set [2], the “mean relative fluorescence intensity at 10 µM peptide” value is 17.6 % of HIV pol reference peptide.

As to YLILEYAPL [AURKA-H1], in data set [2], the “concentration of peptide that induces 20% of HLA-A2 expression” value was 12.2 µM; the “relative affinity, normalized” value is 22.8 ratio to HIV pol reference peptide; the “mean relative fluorescence intensity at 0.1 µM peptide” value is 0 % of HIV pol reference peptide; the “mean relative fluorescence intensity at 1 µM peptide” value is 0 % of HIV pol reference peptide. In data set [2], the “mean relative fluorescence intensity at 10 µM peptide” value was 13.1 % of HIV pol reference peptide and the “mean relative fluorescence intensity at 100 µM peptide” value was 164 % of HIV pol reference peptide.
